# Assay results as given in US20230147840A1 (Chugai, published 2023).
# Read-outs that look alike come from different tables or passages of the source.
# T1: Human CD3eg linker (human)
# T1 construct: Single-chain soluble construct; also called recombinant human CD3
# T1 chain: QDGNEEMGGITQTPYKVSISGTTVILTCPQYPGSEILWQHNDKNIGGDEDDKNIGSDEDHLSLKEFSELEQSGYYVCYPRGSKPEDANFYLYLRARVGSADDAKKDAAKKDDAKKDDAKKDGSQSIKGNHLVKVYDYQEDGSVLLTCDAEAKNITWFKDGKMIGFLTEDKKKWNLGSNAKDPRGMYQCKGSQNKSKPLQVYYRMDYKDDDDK
# Assays:
# Human CD3eg linker [1] = target: T1, Human CD3eg linker; test: SPR Biacore 8K, Ab captured on anti-human Fc, CD3 as analyte, 25 C
# Experimental: (§1) Binding affinity of Dual-Ig antibodies to human CD3 were assessed at 25 degrees C. using Biacore 8K instrument (GE Healthcare). Anti-human Fc (GE Healthcare) was immobilized onto all flow cells of a CM4 sensor chip using amine coupling kit (GE Healthcare). Antibodies were captured onto the anti-Fc sensor surfaces, then recombinant human CD3 or CD137 was injected over the flow cell. All antibodies and analytes were prepared in ACES pH 7.4 containing 20 mM ACES, 150 mM NaCl, 0.05% Tween 20, 0.005% NaN₃. Sensor surface was regenerated each cycle with 3M MgCl₂. […] CD137 binding affinity assay was conducted in same condition except assay temperature was set at 37 degrees C.
# [2] = target: T2, Human CD137 extracellular domain (ECD) (human); test: SPR Biacore 8K, Ab captured on anti-human Fc, CD137 as analyte, 37 C
# T2 construct: also called Human CD137 ECD; recombinant human CD137
# T2 sequence (chain, as listed by the source limits assumed): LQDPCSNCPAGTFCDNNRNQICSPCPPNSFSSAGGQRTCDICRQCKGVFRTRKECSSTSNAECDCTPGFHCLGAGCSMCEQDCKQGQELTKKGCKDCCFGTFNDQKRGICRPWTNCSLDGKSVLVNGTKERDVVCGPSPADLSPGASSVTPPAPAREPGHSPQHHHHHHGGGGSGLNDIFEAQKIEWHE
# Experimental: as §1
# [3] = target: T2, Human CD137 extracellular domain (ECD); test: SPR Biacore 8K, 37 C; reference xGPC3/DualAE05-xSG1350kSG1349hV11
# Experimental: as §1
# This is caused by faster off rate in FAST-Ig construct. […] This is caused by faster off rate in FAST-Ig construct.
# Human CD3eg linker [4] = target: T1, Human CD3eg linker; test: SPR Biacore 8K, Ab captured on anti-human Fc, CD3 as analyte, 25 C
# Experimental: (§2) Binding affinity of Dual-Fab antibodies (Dual-Ig) to human CD3 were assessed at 25 degrees C. using Biacore 8K instrument (GE Healthcare). Anti-human Fc (GE Healthcare) was immobilized onto all flow cells of a CM4 sensor chip using amine coupling kit (GE Healthcare). Antibodies were captured onto the anti-Fc sensor surfaces, then recombinant human CD3 or CD137 was injected over the flow cell. All antibodies and analytes were prepared in ACES pH 7.4 containing 20 mM ACES, 150 mM NaCl, 0.05% Tween 20, 0.005% NaN₃. Sensor surface was regenerated each cycle with 3M MgCl₂. […] CD137 binding affinity assay was conducted in same condition except assay temperature was set at 37 degrees C.
# [5] = target: T2, Human CD137 extracellular domain (ECD); test: SPR Biacore 8K, Ab captured on anti-human Fc, CD137 as analyte, 37 C; remark: listed apart in the source
# Experimental: as §2
Binder,Kd (Human CD3eg linker [1]),koff (Human CD3eg linker [1]),kon (Human CD3eg linker [1]),Kd [2],koff [2],kon [2],fold weaker binding affinity than CrossMab prepared antibodies [3],Kd (Human CD3eg linker [4]),koff (Human CD3eg linker [4]),kon (Human CD3eg linker [4]),Kd [5],koff [5],kon [5]
"GPC3/DualAE05-SG1363k1364hV11 (bispecific antibody, V domains shown, 1+1 tri-specific, FAST-Ig format) VH 1: QVQLVQSGAEVKKPGASVTVSCKASGYTFTDYEMHWIRQPPGEGLEWIGAIDGPTPDTAYSEKFKGRVTLTADKSTSTAYMELSSLTSEDTAVYYCTRFYSYTYWGQGTLVTVSS VL 1: DIVMTQSPLSLPVTPGEPASISCRSSQPLVHSNRNTYLHWYQQKPGQAPRLLIYKVSNRFSGVPDRFSGSGSGTDFTLKISRVEAEDVGVYYCGQGTQVPYTFGQGTKLEIK VH 2: QVQLVESGGGLVQPGRSLRLSCAASGFKFSNVWFHWVRQAPGKGLEWVAQIKDYYNAYAAYYAPSVKGRFTISRDDSKNSIYLQMNSLKTEDTAVYYCHYVHYASASTLLPAEGVDAWGQGTTVTVSS VL 2: DIVMTQSPLSLPVTPGEPASISCQPSQEVVHMNRNTYLHWYQQKPGQAPRLLIYKVSNRFPGVPDRFSGSGSGTDFTLKISRVEAEDVGVYYCAQGTSHPFTFGQGTKLEIK",314 nM,0.0278 s⁻¹,88500 M⁻¹ s⁻¹,79.5 nM,0.00102 s⁻¹,12800 M⁻¹ s⁻¹,~2 fold,,,,,,
"H1572L0581 (antibody, V domains shown, Dual-Ig with an Fc; also called DualAE26; dBBDu183H1572/dBBDu072L0581) VH: QVQLVESGGGLVQPGRSLRLSCAASGFKFSNVWFHWVRQAPGKGLEWVAQIKDKYNAYAAYYAPSVKGRFTISRDDSKNSIYLQMNSLKTEDTAVYYCHYVHYASASTLLPAEGVDAWGQGTTVTVSS VL: DIVMTQSPLSLPVTPGEPASISCQPSQEVVHMNRNTYLHWYQQKPGQAPRLLIYKVSNRFPGVPDRFSGSGSGTDFTLKISRVEAEDVGVYYCAQGTSHPFTFGQGTKLEIK",,,,,,,,286 nM,0.028 s⁻¹,97700 M⁻¹ s⁻¹,52.1 nM,0.000722 s⁻¹,13900 M⁻¹ s⁻¹
"H0883 (antibody, V domains shown, Dual-Ig with an Fc; also called DualAE27; dBBDu183H0883/dBBDu072L) VH: QVQLVESGGGLVQPGRSLRLSCAASGFTFSNAWMHWVRQAPGKGLEWVAQIKDKGNAYAAYYAPSVKGRFTISRDDSKNSIYLQMNSLKTEDTAVYYCRYVHYASASTLLPAFGVDAWGQGTTVTVSS VL: DIVMTQSPLSLPVTPGEPASISCQASQELVHMNRNTYLHWYQQKPGQAPRLLIYKVSNRFPGVPDRFSGSGSGTDFTLKISRVEAEDVGVYYCAQGTSVPFTFGQGTKLEIK",,,,,,,,110 nM,0.00999 s⁻¹,90700 M⁻¹ s⁻¹,,,

# More lines, now with the values ahead:
Kd (Human CD3eg linker [1]),koff (Human CD3eg linker [1]),kon (Human CD3eg linker [1]),Kd [2],koff [2],kon [2],fold weaker binding affinity than CrossMab prepared antibodies [3],Kd (Human CD3eg linker [4]),koff (Human CD3eg linker [4]),kon (Human CD3eg linker [4]),Kd [5],koff [5],kon [5],Binder
296 nM,0.0275 s⁻¹,92900 M⁻¹ s⁻¹,40.5 nM,0.000525 s⁻¹,13000 M⁻¹ s⁻¹,,,,,,,,"xGPC3/DualAE05-xSG1350k1349hV11 (bispecific antibody, V domains shown, 1+1 tri-specific, CrossMab format (VH/VL of the GPC3 arm exchanged, charge mutations in CH1/CL of the Dual arm); also called xGPC3/DualAE05-xSG1350kSG1349hV11; AE05 CrossMab) VH 1: QVQLVQSGAEVKKPGASVTVSCKASGYTFTDYEMHWIRQPPGEGLEWIGAIDGPTPDTAYSEKFKGRVTLTADKSTSTAYMELSSLTSEDTAVYYCTRFYSYTYWGQGTLVTVSS VL 1: DIVMTQSPLSLPVTPGEPASISCRSSQPLVHSNRNTYLHWYQQKPGQAPRLLIYKVSNRFSGVPDRFSGSGSGTDFTLKISRVEAEDVGVYYCGQGTQVPYTFGQGTKLEIK VH 2: QVQLVESGGGLVQPGRSLRLSCAASGFKFSNVWFHWVRQAPGKGLEWVAQIKDYYNAYAAYYAPSVKGRFTISRDDSKNSIYLQMNSLKTEDTAVYYCHYVHYASASTLLPAEGVDAWGQGTTVTVSS VL 2: DIVMTQSPLSLPVTPGEPASISCQPSQEVVHMNRNTYLHWYQQKPGQAPRLLIYKVSNRFPGVPDRFSGSGSGTDFTLKISRVEAEDVGVYYCAQGTSHPFTFGQGTKLEIK"
282 nM,0.0263 s⁻¹,93400 M⁻¹ s⁻¹,54.7 nM,0.000745 s⁻¹,13600 M⁻¹ s⁻¹,~2 fold,,,,,,,"GPC3/DualAE05-SG1364k1363hV11 (bispecific antibody, V domains shown, 1+1 tri-specific, FAST-Ig format; Same variable regions as m28, different constant-region charge mutations; Full chains not tied by name) VH 1: QVQLVQSGAEVKKPGASVTVSCKASGYTFTDYEMHWIRQPPGEGLEWIGAIDGPTPDTAYSEKFKGRVTLTADKSTSTAYMELSSLTSEDTAVYYCTRFYSYTYWGQGTLVTVSS VL 1: DIVMTQSPLSLPVTPGEPASISCRSSQPLVHSNRNTYLHWYQQKPGQAPRLLIYKVSNRFSGVPDRFSGSGSGTDFTLKISRVEAEDVGVYYCGQGTQVPYTFGQGTKLEIK VH 2: QVQLVESGGGLVQPGRSLRLSCAASGFKFSNVWFHWVRQAPGKGLEWVAQIKDYYNAYAAYYAPSVKGRFTISRDDSKNSIYLQMNSLKTEDTAVYYCHYVHYASASTLLPAEGVDAWGQGTTVTVSS VL 2: DIVMTQSPLSLPVTPGEPASISCQPSQEVVHMNRNTYLHWYQQKPGQAPRLLIYKVSNRFPGVPDRFSGSGSGTDFTLKISRVEAEDVGVYYCAQGTSHPFTFGQGTKLEIK"
